US20260008815A1, “CYCLIC PEPTIDE OR SALT THEREOF, AND USES THEREOF” (FUJIFILM Corporation, priority 2023, published 2026)
Bridge positions count the residues as written; N and C are the ends. Ends that are not written are not given here. COCH2 = acetyl group that carries the bridge

B1: cyclic peptide SEQ ID NO: 43 (peptide)
peptide: HCNANFVYQQQYLYLLQYK(COCH2)L
modifications: thioether 2-19 (inferred)
B2: cyclic peptide SEQ ID NO: 133 (peptide)
peptide: ECLGNYFSHEQYQYLLQYK(COCH2)I
modifications: thioether 2-19
B3: cyclic peptide SEQ ID NO: 134 (peptide)
peptide: LCADQYDYLLQYVFWRTYK(COCH2)I
modifications: thioether 2-19
B4: cyclic peptide SEQ ID NO: 135 (peptide)
peptide: QCTYLAQYLVERYHLTK(COCH2)T
modifications: thioether 2-17
B5: cyclic peptide SEQ ID NO: 131 (peptide)
peptide: YCEENYLDPEQYQYFIYFK(COCH2)Y
modifications: thioether 2-19
B6: cyclic peptide SEQ ID NO: 136 (peptide)
peptide: GCEENYLDPEQYQYFIYFK(COCH2)Y
modifications: thioether 2-19
B7: cyclic peptide SEQ ID NO: 137 (peptide)
peptide: PCEENYLDPEQYQYFIYFK(COCH2)Y
modifications: thioether 2-19
B8: cyclic peptide SEQ ID NO: 138 (peptide)
peptide: LCEENYLDPEQYQYFIYFK(COCH2)Y
modifications: thioether 2-19
B9: cyclic peptide SEQ ID NO: 139 (peptide)
peptide: ICEENYLDPEQYQYFIYFK(COCH2)Y
modifications: thioether 2-19
B10: cyclic peptide SEQ ID NO: 140 (peptide)
peptide: VCEENYLDPEQYQYFIYFK(COCH2)Y
modifications: thioether 2-19
B11: cyclic peptide SEQ ID NO: 141 (peptide)
peptide: FCEENYLDPEQYQYFIYFK(COCH2)Y
modifications: thioether 2-19
B12: cyclic peptide SEQ ID NO: 142 (peptide)
peptide: WCEENYLDPEQYQYFIYFK(COCH2)Y
modifications: thioether 2-19
B13: cyclic peptide SEQ ID NO: 143 (peptide)
peptide: NCEENYLDPEQYQYFIYFK(COCH2)Y
modifications: thioether 2-19
B14: cyclic peptide SEQ ID NO: 144 (peptide)
peptide: QCEENYLDPEQYQYFIYFK(COCH2)Y
modifications: thioether 2-19
B15: cyclic peptide SEQ ID NO: 145 (peptide)
peptide: SCEENYLDPEQYQYFIYFK(COCH2)Y
modifications: thioether 2-19
B16: cyclic peptide SEQ ID NO: 146 (peptide)
peptide: TCEENYLDPEQYQYFIYFK(COCH2)Y
modifications: thioether 2-19
B17: cyclic peptide SEQ ID NO: 147 (peptide)
peptide: DCEENYLDPEQYQYFIYFK(COCH2)Y
modifications: thioether 2-19
B18: cyclic peptide SEQ ID NO: 148 (peptide)
peptide: ECEENYLDPEQYQYFIYFK(COCH2)Y
modifications: thioether 2-19
B19: cyclic peptide SEQ ID NO: 149 (peptide)
peptide: RCEENYLDPEQYQYFIYFK(COCH2)Y
modifications: thioether 2-19
B20: cyclic peptide SEQ ID NO: 150 (peptide)
peptide: HCEENYLDPEQYQYFIYFK(COCH2)Y
modifications: thioether 2-19
B21: cyclic peptide SEQ ID NO: 151 (peptide)
peptide: YCGENYLDPEQYQYFIYFK(COCH2)Y
modifications: thioether 2-19
B22: cyclic peptide SEQ ID NO: 152 (peptide)
peptide: YCPENYLDPEQYQYFIYFK(COCH2)Y
modifications: thioether 2-19
B23: cyclic peptide SEQ ID NO: 153 (peptide)
peptide: YCLENYLDPEQYQYFIYFK(COCH2)Y
modifications: thioether 2-19
B24: cyclic peptide SEQ ID NO: 154 (peptide)
peptide: YCIENYLDPEQYQYFIYFK(COCH2)Y
modifications: thioether 2-19
B25: cyclic peptide SEQ ID NO: 155 (peptide)
peptide: YCVENYLDPEQYQYFIYFK(COCH2)Y
modifications: thioether 2-19
B26: cyclic peptide SEQ ID NO: 156 (peptide)
peptide: YCFENYLDPEQYQYFIYFK(COCH2)Y
modifications: thioether 2-19
B27: cyclic peptide SEQ ID NO: 157 (peptide)
peptide: YCYENYLDPEQYQYFIYFK(COCH2)Y
modifications: thioether 2-19
B28: cyclic peptide SEQ ID NO: 158 (peptide)
peptide: YCWENYLDPEQYQYFIYFK(COCH2)Y
modifications: thioether 2-19
B29: cyclic peptide SEQ ID NO: 159 (peptide)
peptide: YCNENYLDPEQYQYFIYFK(COCH2)Y
modifications: thioether 2-19
B30: cyclic peptide SEQ ID NO: 160 (peptide)
peptide: YCQENYLDPEQYQYFIYFK(COCH2)Y
modifications: thioether 2-19
B31: cyclic peptide SEQ ID NO: 161 (peptide)
peptide: YCSENYLDPEQYQYFIYFK(COCH2)Y
modifications: thioether 2-19
B32: cyclic peptide SEQ ID NO: 162 (peptide)
peptide: YCTENYLDPEQYQYFIYFK(COCH2)Y
modifications: thioether 2-19
B33: cyclic peptide SEQ ID NO: 163 (peptide)
peptide: YCDENYLDPEQYQYFIYFK(COCH2)Y
modifications: thioether 2-19
B34: cyclic peptide SEQ ID NO: 164 (peptide)
peptide: YCRENYLDPEQYQYFIYFK(COCH2)Y
modifications: thioether 2-19
B35: cyclic peptide SEQ ID NO: 165 (peptide)
peptide: YCHENYLDPEQYQYFIYFK(COCH2)Y
modifications: thioether 2-19
B36: cyclic peptide SEQ ID NO: 166 (peptide)
peptide: YCEGNYLDPEQYQYFIYFK(COCH2)Y
modifications: thioether 2-19
B37: cyclic peptide SEQ ID NO: 167 (peptide)
peptide: YCEPNYLDPEQYQYFIYFK(COCH2)Y
modifications: thioether 2-19
B38: cyclic peptide SEQ ID NO: 168 (peptide)
peptide: YCELNYLDPEQYQYFIYFK(COCH2)Y
modifications: thioether 2-19
B39: cyclic peptide SEQ ID NO: 169 (peptide)
peptide: YCEINYLDPEQYQYFIYFK(COCH2)Y
modifications: thioether 2-19
B40: cyclic peptide SEQ ID NO: 170 (peptide)
peptide: YCEVNYLDPEQYQYFIYFK(COCH2)Y
modifications: thioether 2-19
B41: cyclic peptide SEQ ID NO: 171 (peptide)
peptide: YCEFNYLDPEQYQYFIYFK(COCH2)Y
modifications: thioether 2-19 (inferred)
B42: cyclic peptide SEQ ID NO: 172 (peptide)
peptide: YCEYNYLDPEQYQYFIYFK(COCH2)Y
modifications: thioether 2-19 (inferred)
B43: cyclic peptide SEQ ID NO: 173 (peptide)
peptide: YCEWNYLDPEQYQYFIYFK(COCH2)Y
modifications: thioether 2-19 (inferred)
B44: cyclic peptide SEQ ID NO: 174 (peptide)
peptide: YCENNYLDPEQYQYFIYFK(COCH2)Y
modifications: thioether 2-19 (inferred)

Biological target: T1, Recombinant Human FGFR2 alpha (IIIc) Fc Chimera Protein, CF (R&D systems, 712-FR-050) (human, UniProt P21802 22-377)
T1 construct: bought; not shown: Fc part of the chimera
Assay: ELISA on plate-bound FGFR2-Fc
Experimental: First, 5 ng of Recombinant Human FGFR2 alpha (IIIc) Fc Chimera Protein (R&D systems, 712-FR-050) was immobilized in each well of a 96-well plate, and blocked with Pierce Protein-Free (PBS) Blocking Buffer (Thermo, 37572), and a peptide diluted with Can Get Signal Immunoreaction Enhancer Solution I (TOYOBO, NKB-101) was then added and reacted at room temperature for 3 hours. After washing with 0.05% Tween 20-containing phosphate buffered saline (PBS), an anti-Myc antibody (Cell Signaling, 14038S) diluted with Can Get Signal Immunoreaction Enhancer Solution II (TOYOBO, NKB-101) was added and reacted at room temperature for 2 hours. After washing with 0.05% Tween 20-containing PBS, SuperSignal ELISA Femto Substrate (Thermo, 37075) was added, and the luminescence amount was measured. The dose-response relationship was calculated from using the difference between the luminescence amount in the well in which FGFR was immobilized and the luminescence amount in the well in which FGFR was not immobilized, and the concentration of the peptide at the time of reaction, and the binding affinity to FGFR was evaluated according to the following evaluation criteria. The evaluation result preferably satisfies the evaluation criteria A, B, or C.

T1 sequence (P21802 22-377, change not shown): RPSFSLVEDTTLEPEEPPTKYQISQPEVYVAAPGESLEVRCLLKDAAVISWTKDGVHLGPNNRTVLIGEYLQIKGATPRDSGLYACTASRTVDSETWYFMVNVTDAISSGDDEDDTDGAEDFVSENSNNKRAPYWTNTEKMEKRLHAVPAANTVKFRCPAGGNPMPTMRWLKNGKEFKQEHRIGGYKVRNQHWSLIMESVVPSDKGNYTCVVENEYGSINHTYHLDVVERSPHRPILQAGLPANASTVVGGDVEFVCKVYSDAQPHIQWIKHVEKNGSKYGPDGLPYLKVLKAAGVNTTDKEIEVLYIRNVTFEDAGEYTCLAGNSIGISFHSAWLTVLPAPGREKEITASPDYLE

Binder | ELISA luminescence signal at 10 nmol/L peptide, relative to SEQ ID NO: 47 (=1) [ratio]
B1 | 0.5 to 0.7
B2 | ≥ 0.7
B3 | 0.1 to 0.5
B4 | 0.1 to 0.5
B5 | ≥ 0.7
B6 | ≥ 0.7
B7 | ≥ 0.7
B8 | ≥ 0.7
B9 | ≥ 0.7
B10 | ≥ 0.7
B11 | ≥ 0.7
B12 | ≥ 0.7
B13 | ≥ 0.7
B14 | ≥ 0.7
B15 | ≥ 0.7
B16 | ≥ 0.7
B17 | ≥ 0.7
B18 | ≥ 0.7
B19 | ≥ 0.7
B20 | ≥ 0.7
B21 | ≥ 0.7
B22 | ≥ 0.7

Binder | ELISA luminescence signal at 10 nmol/L peptide, relative to SEQ ID NO: 47 (=1) [ratio]
B23 | ≥ 0.7
B24 | ≥ 0.7
B25 | ≥ 0.7
B26 | ≥ 0.7
B27 | ≥ 0.7
B28 | ≥ 0.7
B29 | ≥ 0.7
B30 | ≥ 0.7
B31 | ≥ 0.7
B32 | ≥ 0.7
B33 | ≥ 0.7
B34 | ≥ 0.7
B35 | ≥ 0.7
B36 | ≥ 0.7
B37 | ≥ 0.7
B38 | ≥ 0.7
B39 | ≥ 0.7
B40 | ≥ 0.7
B41 | 0.5 to 0.7
B42 | ≥ 0.7
B43 | ≥ 0.7
B44 | ≥ 0.7
